The text below walks through data of patent US20120220489A1.

Some results are limits rather than exact numbers.

The target in test [1] is Erk1-BSA 2.7x peptide-protein conjugate (human; bovine). The test is described as follows: RPA standard curves, mean of duplicate assays.
Test [2] concerns the target ERK1 (p44) inactive (GST tagged), human, Invitrogen PV 3312 (human) (UniProt P27361). Description: RPA standard curves, mean of duplicate assays.
The target of test [3] is Erk1-BSA 2.7x peptide-protein conjugate (human; bovine). The test is described as follows: RPA standard curve, assay 1, LOD back-calculated from one-site fit.
Test [4] deals with ERK1 (p44) inactive (GST tagged), human, Invitrogen PV 3312 (human) (UniProt P27361). The test is described as above.
Test [5] concerns the target Erk1-BSA 2.7x peptide-protein conjugate (human; bovine). The test is described as follows: RPA, competition: +free H3 peptide 10 nM.
For test [6], the target named is ERK2 (p42), human, Biosource PHO 0104 (human) (UniProt P28482). The test is described as follows: RPA, competition: +free H3 peptide 10 nM.
The target of test [7] is Histone H3 recombinant protein, calf, Roche 11 034 758 001 (calf) (UniProt P68432). Description: RPA, competition: +free H3 peptide 10 nM.
The target in test [8] is pRb recombinant protein, human, Active Motif 31 128 (human) (UniProt P06400). The test is described as follows: RPA, competition: +free H3 peptide 10 nM.
For test [9], the target named is ERK1 (p42) active (phospho), human, Active Motif 31 152 (human) (UniProt P27361). Description: RPA, competition: +free H3 peptide 10 nM.
Test [10] addresses ERK1 (p44) active (GST tagged), human, Invitrogen PV 3311 (human) (UniProt P27361). The test is described as follows: RPA, competition: +free H3 peptide 10 nM.
Test [11] has as its target Histone H3-BSA 2.7x peptide-protein conjugate (bovine). Description: RPA, competition: +free H3 peptide 10 nM.
Test [12] has as its target ERK1 (p44), human, Cell Signaling Technology 7416 (human) (UniProt P27361). Description: RPA, competition: +free H3 peptide 10 nM.
Test [13] deals with pErk1/2-BSA 2.7x peptide-protein conjugate (human; bovine). The test is described as follows: RPA, competition: +free H3 peptide 10 nM.
In test [14] the target is ERK1 (p44) inactive (GST tagged), human, Invitrogen PV 3312 (human) (UniProt P27361). The test is described as follows: RPA, competition: +free H3 peptide 10 nM.
In test [15] the target is Histone H3 recombinant protein, human, Upstate 14-494 (human) (UniProt P68431). Description: RPA, competition: +free H3 peptide 10 nM.
The target in test [16] is pRb-BSA 1x peptide-protein conjugate (bovine). Description: RPA, competition: +free H3 peptide 10 nM.
The target in test [17] is Histone H3-BSA 2.7x peptide-protein conjugate (bovine). The test is described as follows: RPA standard curves, mean of duplicate assays.
Test [18] addresses Histone H3 recombinant protein, human, Upstate 14-494 (human) (UniProt P68431). Description: RPA standard curves, mean of duplicate assays.
The target of test [19] is ERK2 (p42), human, Biosource PHO 0104 (human) (UniProt P28482). Description: RPA, competition: +free H3 peptide 100 nM.
In test [20] the target is Histone H3 recombinant protein, calf, Roche 11 034 758 001 (calf) (UniProt P68432). Description: RPA, competition: +free H3 peptide 100 nM.
Test [21] has as its target ERK1 (p42) active (phospho), human, Active Motif 31 152 (human) (UniProt P27361). The test is described as follows: RPA, competition: +free H3 peptide 100 nM.
Test [22] concerns the target Histone H3 recombinant protein, human, Upstate 14-494 (human) (UniProt P68431). Description: RPA, competition: +free H3 peptide 100 nM.
The target in test [23] is pRb-BSA 1x peptide-protein conjugate (bovine). The test is described as follows: RPA, competition: +free H3 peptide 100 nM.
The target of test [24] is Histone H3-BSA 2.7x peptide-protein conjugate (bovine). Description: RPA standard curve, assay 1, LOD back-calculated from one-site fit.
Test [25] deals with Histone H3 recombinant protein, human, Upstate 14-494 (human) (UniProt P68431). The description is as above.
The target in test [26] is Erk1-BSA 2.7x peptide-protein conjugate (human; bovine). The test is described as follows: RPA, competition: +free H3 peptide 1000 nM.
The target of test [27] is ERK1 (p42) active (phospho), human, Active Motif 31 152 (human) (UniProt P27361). The test is described as follows: RPA, competition: +free H3 peptide 1000 nM.
The target of test [28] is ERK1 (p44) active (GST tagged), human, Invitrogen PV 3311 (human) (UniProt P27361). Description: RPA, competition: +free H3 peptide 1000 nM.
In test [29] the target is Histone H3-BSA 2.7x peptide-protein conjugate (bovine). The test is described as follows: RPA, competition: +free H3 peptide 1000 nM.
Test [30] concerns the target ERK1 (p44), human, Cell Signaling Technology 7416 (human) (UniProt P27361). Description: RPA, competition: +free H3 peptide 1000 nM.
Test [31] deals with ERK1 (p44) inactive (GST tagged), human, Invitrogen PV 3312 (human) (UniProt P27361). Description: RPA, competition: +free H3 peptide 1000 nM.
Test [32] addresses Histone H3 recombinant protein, human, Upstate 14-494 (human) (UniProt P68431). The test is described as follows: RPA, competition: +free H3 peptide 1000 nM.
Test [33] addresses pErk1/2-BSA 2.7x peptide-protein conjugate (human; bovine). The test is described as follows: RPA standard curves, mean of duplicate assays.
Test [34] concerns the target ERK1 (p42) active (phospho), human, Active Motif 31 152 (human) (UniProt P27361). The test is described as follows: RPA standard curves.
Test [35] concerns the target ERK1 (p44) active (GST tagged), human, Invitrogen PV 3311 (human) (UniProt P27361). Description: RPA standard curves.
Test [36] deals with ERK1 (p44), human, Cell Signaling Technology 7416 (human) (UniProt P27361). The test is described as follows: RPA standard curves.
In test [37] the target is ERK1 (p44) inactive (GST tagged), human, Invitrogen PV 3312 (human) (UniProt P27361). Description: RPA standard curves.
In test [38] the target is pErk1/2-BSA 2.7x peptide-protein conjugate (human; bovine). The test is described as follows: RPA standard curve, assay 1, LOD back-calculated from one-site fit.

Sequence of Histone H3-BSA 2.7x peptide-protein conjugate (bovine) (P02769 25-607 limits assumed): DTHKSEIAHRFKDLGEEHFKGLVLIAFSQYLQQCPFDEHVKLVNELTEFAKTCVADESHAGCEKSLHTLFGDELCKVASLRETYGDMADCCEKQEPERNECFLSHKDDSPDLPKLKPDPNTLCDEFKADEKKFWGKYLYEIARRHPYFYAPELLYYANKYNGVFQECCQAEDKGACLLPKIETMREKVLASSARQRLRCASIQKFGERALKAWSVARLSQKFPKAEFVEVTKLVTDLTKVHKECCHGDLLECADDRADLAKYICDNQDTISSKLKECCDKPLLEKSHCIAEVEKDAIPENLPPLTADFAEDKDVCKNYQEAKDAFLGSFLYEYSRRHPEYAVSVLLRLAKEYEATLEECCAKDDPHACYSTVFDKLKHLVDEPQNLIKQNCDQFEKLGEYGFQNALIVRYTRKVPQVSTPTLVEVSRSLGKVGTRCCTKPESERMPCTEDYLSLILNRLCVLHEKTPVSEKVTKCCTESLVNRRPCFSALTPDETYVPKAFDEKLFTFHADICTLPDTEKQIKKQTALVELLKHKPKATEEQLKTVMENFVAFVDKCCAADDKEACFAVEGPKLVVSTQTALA
Sequence of pErk1/2-BSA 2.7x peptide-protein conjugate (human; bovine) (P02769 25-607 limits assumed): as above
Sequence of Erk1-BSA 2.7x peptide-protein conjugate (human; bovine) (peptide, as listed by the source limits assumed, chain 1 of 2): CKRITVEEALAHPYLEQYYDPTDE
Sequence of Erk1-BSA 2.7x peptide-protein conjugate (human; bovine) (P02769 25-607 limits assumed, chain 2 of 2): as the sequence (P02769 25-607 limits assumed) above
Sequence of pRb-BSA 1x peptide-protein conjugate (bovine) (P02769 25-607 limits assumed): as above
Sequence of UniProt P28482 (P28482 2-360 limits assumed): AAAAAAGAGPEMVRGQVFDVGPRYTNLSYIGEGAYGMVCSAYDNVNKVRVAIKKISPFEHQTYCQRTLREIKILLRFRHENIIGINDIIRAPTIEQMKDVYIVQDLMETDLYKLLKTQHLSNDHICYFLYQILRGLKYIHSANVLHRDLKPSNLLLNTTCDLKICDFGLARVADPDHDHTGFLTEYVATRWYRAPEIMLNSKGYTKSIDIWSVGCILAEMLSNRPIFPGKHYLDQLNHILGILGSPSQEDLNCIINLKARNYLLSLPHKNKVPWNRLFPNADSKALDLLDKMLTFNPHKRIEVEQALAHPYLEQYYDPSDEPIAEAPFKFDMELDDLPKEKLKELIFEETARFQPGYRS
Sequence of UniProt P06400 (P06400 whole entry): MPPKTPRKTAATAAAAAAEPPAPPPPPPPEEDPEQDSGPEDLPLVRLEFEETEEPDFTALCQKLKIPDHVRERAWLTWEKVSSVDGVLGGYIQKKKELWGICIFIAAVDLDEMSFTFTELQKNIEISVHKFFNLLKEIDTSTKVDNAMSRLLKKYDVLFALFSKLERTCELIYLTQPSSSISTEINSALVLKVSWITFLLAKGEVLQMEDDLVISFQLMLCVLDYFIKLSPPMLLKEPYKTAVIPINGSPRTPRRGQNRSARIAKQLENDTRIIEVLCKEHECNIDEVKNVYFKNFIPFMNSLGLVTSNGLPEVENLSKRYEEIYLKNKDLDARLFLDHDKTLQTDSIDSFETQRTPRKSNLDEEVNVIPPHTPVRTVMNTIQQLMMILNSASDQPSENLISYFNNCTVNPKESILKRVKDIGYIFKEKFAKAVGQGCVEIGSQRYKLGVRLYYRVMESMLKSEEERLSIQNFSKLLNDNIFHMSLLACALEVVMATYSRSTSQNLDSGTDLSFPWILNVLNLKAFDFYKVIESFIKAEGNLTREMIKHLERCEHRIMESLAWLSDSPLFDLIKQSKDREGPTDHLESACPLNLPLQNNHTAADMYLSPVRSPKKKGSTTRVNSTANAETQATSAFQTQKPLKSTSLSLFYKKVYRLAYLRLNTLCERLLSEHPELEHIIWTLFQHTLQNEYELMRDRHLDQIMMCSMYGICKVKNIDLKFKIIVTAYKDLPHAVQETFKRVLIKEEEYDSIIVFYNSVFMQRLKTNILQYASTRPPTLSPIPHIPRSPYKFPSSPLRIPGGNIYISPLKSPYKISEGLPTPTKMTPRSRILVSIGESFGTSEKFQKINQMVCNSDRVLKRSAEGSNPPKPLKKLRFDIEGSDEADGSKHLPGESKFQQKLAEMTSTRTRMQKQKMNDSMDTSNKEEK

On to “p44/42 MAPK (Erk1/2) antibody, Biosource 44-654G”, for which the mean LOD in test [1] amounted to 0.046 nM; in test [2] it was 0.072 nM. Further, the LOD in test [3] was 0.045 nM; in test [4], 0.059 nM.
For the substance Histone H3 antibody, Abcam ab1791, the maximum standard curve signal is less than 0.01 RFI in test [5]; less than 0.01 RFI in test [6]; 0.3 RFI in test [7]; less than 0.01 RFI in [8]; less than 0.01 RFI in test [9]; less than 0.01 RFI in test [10]. Moreover, the maximum standard curve signal in [11] was 4.28 RFI; in test [12], less than 0.01 RFI; in test [13], less than 0.01 RFI; in test [14] it was less than 0.01 RFI; in test [15], 7.04 RFI; in test [16], less than 0.01 RFI. For the same substance, the maximum standard curve signal was less than 0.01 RFI in test [19]; 0.2 RFI in test [20]; less than 0.01 RFI in test [21]; 4.45 RFI in test [22]; less than 0.01 RFI in test [23]; less than 0.01 RFI in test [26]. The maximum standard curve signal in test [27] is less than 0.01 RFI; in test [28], less than 0.01 RFI; in test [29] it was 1.41 RFI; in test [30] it was less than 0.01 RFI; in test [31] it was 0.01 RFI; in [32], 1.13 RFI. Also, the mean LOD in [17] turned out to be 0.123 nM; in test [18], 0.156 nM. For the same substance, the LOD in [24] is 0.104 nM; in [25] it was 0.133 nM.
Take “p44/42 MAPK phospho (pERK1/2) Thr202/Tyr204 antibody, Cell Signaling Technology #9101”: in test [33], the mean LOD is 0.03 nM. Besides, the signal relative to pErk1 protein (Invitrogen) turned out to be 12% in test [34], 11% in test [36] and 3% in test [37]. This substance yielded a signal intensity relative to the pErk1/2-BSA peptide standard in [35] of 25%. Also, the LOD in test [38] was 0.028 nM.
